According to publication PMC4415891, “Adamtsl2 deletion results in bronchial fibrillin microfibril accumulation and bronchial epithelial dysplasia – a novel mouse model providing insights into geleophysic dysplasia” (Disease Models & Mechanisms, 2015):

B1: C-terminal half of fibrillin-1 (FBN1), recombinant fragment (domain or fragment)
chain: not shown
B2: N-terminal half of fibrillin-1 (FBN1), recombinant fragment (domain or fragment)
chain: not shown

Molecular target: T1, ADAMTSL2 (a disintegrin and metalloproteinase with thrombospondin motifs-like 2), recombinant (human, UniProt Q86TH1 23-951)
T1 construct: ADAMTSL2, secreted glycoprotein; source: recombinant, purified as described previously (Koo et al., 2007)
T1 sequence (looked up): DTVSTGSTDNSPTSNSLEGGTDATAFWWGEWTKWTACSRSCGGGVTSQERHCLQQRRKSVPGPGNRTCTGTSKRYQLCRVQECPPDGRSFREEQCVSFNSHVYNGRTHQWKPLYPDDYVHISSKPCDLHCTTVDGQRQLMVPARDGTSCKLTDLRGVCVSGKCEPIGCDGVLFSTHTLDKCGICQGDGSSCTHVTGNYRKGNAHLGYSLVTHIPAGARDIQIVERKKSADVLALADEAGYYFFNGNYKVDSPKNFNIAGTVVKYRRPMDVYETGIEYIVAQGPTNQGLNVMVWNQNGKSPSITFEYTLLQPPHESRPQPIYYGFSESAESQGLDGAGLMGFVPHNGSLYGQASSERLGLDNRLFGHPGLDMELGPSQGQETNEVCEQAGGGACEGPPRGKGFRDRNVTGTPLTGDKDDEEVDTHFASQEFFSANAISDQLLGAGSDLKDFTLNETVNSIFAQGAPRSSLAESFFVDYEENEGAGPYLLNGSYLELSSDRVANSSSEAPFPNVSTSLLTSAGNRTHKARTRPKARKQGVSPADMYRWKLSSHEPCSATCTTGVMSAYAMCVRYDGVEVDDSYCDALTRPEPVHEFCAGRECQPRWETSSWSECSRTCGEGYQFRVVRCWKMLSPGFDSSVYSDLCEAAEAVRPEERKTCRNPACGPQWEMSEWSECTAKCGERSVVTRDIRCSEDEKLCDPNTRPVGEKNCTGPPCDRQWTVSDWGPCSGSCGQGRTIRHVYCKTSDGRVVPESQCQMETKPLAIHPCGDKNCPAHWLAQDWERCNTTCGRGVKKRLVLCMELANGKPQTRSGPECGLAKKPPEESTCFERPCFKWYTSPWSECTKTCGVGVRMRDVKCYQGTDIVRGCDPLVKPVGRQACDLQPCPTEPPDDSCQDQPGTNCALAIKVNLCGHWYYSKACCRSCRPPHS
Assay: SPR; ADAMTSL2 immobilised by amine coupling on a CM5 chip (about 1500 RU), fibrillin fragments injected; BIAcore 3000; 25°C; 10 mM HEPES pH 7.4, 150 mM NaCl, 2 mM CaCl2, 0.005% surfactant P20; 20 ul/min; n=2
Details: both partners purified

Row | Binder | Kd [nM]
1 | B1 | 8
2 | B2 | 14.3
